The target of assay [1] is human CD47 on cells (human erythrocytes, MCF-7, BT-474) (human, UniProt Q08722 19-323). Kind of assay: cell-based or functional assay.
Assay [2] has as its target T1, mouse membrane-presented CD47 on Tg32 mouse erythrocytes (mouse, UniProt Q61735 19-303).
T1 construct: whole, on cells
T1 sequence (looked up): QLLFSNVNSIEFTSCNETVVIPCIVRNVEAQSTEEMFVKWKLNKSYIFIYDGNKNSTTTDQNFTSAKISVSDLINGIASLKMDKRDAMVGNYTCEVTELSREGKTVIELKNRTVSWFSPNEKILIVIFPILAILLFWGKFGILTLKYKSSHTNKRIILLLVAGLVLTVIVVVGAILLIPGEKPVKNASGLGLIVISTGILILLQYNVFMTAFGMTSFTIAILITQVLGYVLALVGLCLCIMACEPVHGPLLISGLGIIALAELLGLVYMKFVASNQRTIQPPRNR
Kind of assay: flow cytometry on Tg32 mouse erythrocytes (FIG. 21).

The target of assay [3] is T2, soluble human CD47 ectodomain protein (human, UniProt Q08722 19-139).
T2 construct: also called hCD47; huCD47
As to the kind of experiment: SPR (Biacore), IgG captured via anti-Fc; run at beginning. (In general: In SPR one partner is held on a chip, and binding of the other changes the refractive index at the surface.)

Assay [4] has as its target T2, soluble human CD47 ectodomain protein. As to the kind of experiment: SPR (Biacore), IgG captured via anti-Fc; run at end.
Assay [5] has as its target T3, human CD47 protein (ELISA coat) (human, UniProt Q08722 19-139).
T3 construct: also called hCD47
As to the kind of experiment: direct binding ELISA (FIG. 7C). On the technique in general: ELISA stands for enzyme-linked immunosorbent assay.

The target of assay [6] is human C-MET protein (ELISA coat) (human, UniProt P08581 25-932). As to the kind of experiment: direct binding ELISA (FIG. 7C).
Chain of human C-MET protein (ELISA coat) (P08581 25-932 limits assumed): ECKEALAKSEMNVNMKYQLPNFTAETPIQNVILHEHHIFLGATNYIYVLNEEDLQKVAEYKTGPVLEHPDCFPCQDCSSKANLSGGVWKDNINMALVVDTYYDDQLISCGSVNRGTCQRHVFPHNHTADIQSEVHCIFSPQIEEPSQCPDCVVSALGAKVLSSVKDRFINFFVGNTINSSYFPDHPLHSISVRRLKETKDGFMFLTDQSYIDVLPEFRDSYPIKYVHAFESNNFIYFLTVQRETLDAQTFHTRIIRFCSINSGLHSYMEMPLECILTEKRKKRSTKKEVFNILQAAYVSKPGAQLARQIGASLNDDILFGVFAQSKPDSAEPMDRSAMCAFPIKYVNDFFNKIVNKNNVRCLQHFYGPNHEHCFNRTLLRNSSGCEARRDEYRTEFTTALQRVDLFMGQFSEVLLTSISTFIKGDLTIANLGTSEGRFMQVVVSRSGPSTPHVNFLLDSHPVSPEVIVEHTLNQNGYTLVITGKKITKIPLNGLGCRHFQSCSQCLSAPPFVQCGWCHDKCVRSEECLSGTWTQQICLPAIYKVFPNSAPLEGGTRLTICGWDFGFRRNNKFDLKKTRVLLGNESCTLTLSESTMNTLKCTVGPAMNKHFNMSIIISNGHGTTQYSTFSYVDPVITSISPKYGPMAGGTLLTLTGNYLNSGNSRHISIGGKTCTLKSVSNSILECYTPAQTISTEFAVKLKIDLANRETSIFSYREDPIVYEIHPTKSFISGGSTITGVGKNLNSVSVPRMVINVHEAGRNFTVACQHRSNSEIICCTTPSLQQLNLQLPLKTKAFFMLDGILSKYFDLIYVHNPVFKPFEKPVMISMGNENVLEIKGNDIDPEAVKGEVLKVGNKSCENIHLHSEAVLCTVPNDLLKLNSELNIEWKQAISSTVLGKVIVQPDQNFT

In general, Kd refers to a measure of binding affinity in units of concentration. Low values mean higher affinity, high ones lower affinity. As usually defined, the koff is the rate constant with which the complex falls apart. What is called kon is the second-order rate constant of association.

Some results are limits rather than exact numbers.

B1: Fab^2 cMETCD47-L2-L2 (bispecific antibody)
heavy: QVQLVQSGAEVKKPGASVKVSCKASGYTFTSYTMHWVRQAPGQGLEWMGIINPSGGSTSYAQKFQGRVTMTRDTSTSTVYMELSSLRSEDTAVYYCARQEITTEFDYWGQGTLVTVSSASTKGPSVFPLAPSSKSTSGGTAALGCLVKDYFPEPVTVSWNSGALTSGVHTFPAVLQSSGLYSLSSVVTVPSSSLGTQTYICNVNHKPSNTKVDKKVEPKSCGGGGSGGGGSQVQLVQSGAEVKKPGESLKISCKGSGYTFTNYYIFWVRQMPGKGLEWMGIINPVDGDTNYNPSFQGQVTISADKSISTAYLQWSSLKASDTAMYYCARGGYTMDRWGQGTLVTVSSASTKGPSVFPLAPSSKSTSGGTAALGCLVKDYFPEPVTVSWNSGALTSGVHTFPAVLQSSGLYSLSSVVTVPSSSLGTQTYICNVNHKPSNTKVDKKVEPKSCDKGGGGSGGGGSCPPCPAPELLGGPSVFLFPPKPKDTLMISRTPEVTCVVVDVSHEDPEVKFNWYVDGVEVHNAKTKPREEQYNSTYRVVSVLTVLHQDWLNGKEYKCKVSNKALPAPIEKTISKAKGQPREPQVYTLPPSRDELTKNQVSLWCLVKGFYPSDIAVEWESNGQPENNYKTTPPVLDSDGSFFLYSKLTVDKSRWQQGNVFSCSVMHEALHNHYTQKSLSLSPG
light: EIVLTQSPGTLSLSPGERATLSCRASQSVSSYANSYLHWYQQKPGQAPRLLIYRGSTRESGIPDRFSGSGSGTDFTLTISRLEPEDFAVYYCQQSKSEPLTFGGGTKVEIKRTVAAPSVFIFPPSDEQLKSGTASVVCLLNNFYPREAKVQWKVDNALQSGNSQESVTEQDSKDSTYSLSSTLTLSKADYEKHKVYACEVTHQGLSSPVTKSFNRGECGGGGSGGGGSDIVMTQSPLSLPVTPGEPASISCRSSQSLLHSNGYNYLHWYLQKPGQSPQLLIYKVSNRLSGVPDRFSGSGSGTDFTLKISRVEAEDVGVYYCFQNTHTPRTFGGGTKVEIKRTVAAPSVFIFPPSDEQLKSGTASVVCLLNNFYPREAKVQWKVDNALQSGNSQESVTEQDSKDSTYSLSSTLTLSKADYEKHKVYACEVTHQGLSSPVTKSFNRGECGGGGSGGGGSCPPCPAPELLGGPSVFLFPPKPKDTLMISRTPEVTCVVVDVSHEDPEVKFNWYVDGVEVHNAKTKPREEQYNSTYRVVSVLTVLHQDWLNGKEYKCKVSNKALPAPIEKTISKAKGQPREPQVYTLPPSRDELTKNQVSLSCAVKGFYPSDIAVEWESNGQPENNYKTTPPVLDSDGSFFLVSKLTVDKSRWQQGNVFSCSVMHEALHNHYTQKSLSLSPG
On to B1, for which the “fold reduction of ability to induce agglutination in comparison to A-D5 IgG1” value in assay [1] was more than 241 fold.

B2: Fab^2 Met47 LHL-LHL (as used in the Tg32 mouse studies) (bispecific antibody, not shown: a dimerising Fc or GST)
heavy: QVQLVQSGAEVKKPGASVKVSCKASGYTFTSYTMHWVRQAPGQGLEWMGIINPSGGSTSYAQKFQGRVTMTRDTSTSTVYMELSSLRSEDTAVYYCARQEITTEFDYWGQGTLVTVSSASTKGPSVFPLAPSSKSTSGGTAALGCLVKDYFPEPVTVSWNSGALTSGVHTFPAVLQSSGLYSLSSVVTVPSSSLGTQTYICNVNHKPSNTKVDKKVEPKSCGPAPELLGGGSQVQLVQSGAEVKKPGESLKISCKGSGYTFTNYYIFWVRQMPGKGLEWMGIINPVDGDTNYNPSFQGQVTISADKSISTAYLQWSSLKASDTAMYYCARGGYTMDRWGQGTLVTVSS
light: EIVLTQSPGTLSLSPGERATLSCRASQSVSSYANSYLHWYQQKPGQAPRLLIYRGSTRESGIPDRFSGSGSGTDFTLTISRLEPEDFAVYYCQQSKSEPLTFGGGTKVEIKRTVAAPSVFIFPPSDEQLKSGTASVVCLLNNFYPREAKVQWKVDNALQSGNSQESVTEQDSKDSTYSLSSTLTLSKADYEKHKVYACEVTHQGLSSPVTKSFNRGECGPAPELLGGGSDIVMTQSPLSLPVTPGEPASISCRSSQSLLHSNGYNYLHWYLQKPGQSPQLLIYKVSNRLSGVPDRFSGSGSGTDFTLKISRVEAEDVGVYYCFQNTHTPRTFGGGTKVEIK
Take B2: the binding result in assay [2] was “no binding (tested: 10 µg/ml)”.

B3: A-D5 anti-CD47 IgG1 (antibody, V domains shown)
VH: QVQLVQSGAEVKKPGESLKISCKGSGYTFTNYYIFWVRQMPGKGLEWMGIINPVDGDTNYNPSFQGQVTISADKSISTAYLQWSSLKASDTAMYYCARGGYTMDRWGQGTLVTVSS
VL: DIVMTQSPLSLPVTPGEPASISCRSSQSLLHSNGYNYLHWYLQKPGQSPQLLIYKVSNRLSGVPDRFSGSGSGTDFTLKISRVEAEDVGVYYCFQNTHTPRTFGGGTKVEIK
notes: also called A-D5 IgG1; A-D5 CD47 IgG
Regarding B3, in assay [3], binding was characterised by a dissociation constant (Kd) of 1.29 nM, the koff is 0.00107 s⁻¹ and the kon is 833000 M⁻¹ s⁻¹. In assay [4], this molecule had a Kd of 1.32 nM, a koff of 0.00103 s⁻¹ and a kon of 775000 M⁻¹ s⁻¹.

B4: Fab^2 cMETCD47-LHL-LHL (bispecific antibody)
heavy: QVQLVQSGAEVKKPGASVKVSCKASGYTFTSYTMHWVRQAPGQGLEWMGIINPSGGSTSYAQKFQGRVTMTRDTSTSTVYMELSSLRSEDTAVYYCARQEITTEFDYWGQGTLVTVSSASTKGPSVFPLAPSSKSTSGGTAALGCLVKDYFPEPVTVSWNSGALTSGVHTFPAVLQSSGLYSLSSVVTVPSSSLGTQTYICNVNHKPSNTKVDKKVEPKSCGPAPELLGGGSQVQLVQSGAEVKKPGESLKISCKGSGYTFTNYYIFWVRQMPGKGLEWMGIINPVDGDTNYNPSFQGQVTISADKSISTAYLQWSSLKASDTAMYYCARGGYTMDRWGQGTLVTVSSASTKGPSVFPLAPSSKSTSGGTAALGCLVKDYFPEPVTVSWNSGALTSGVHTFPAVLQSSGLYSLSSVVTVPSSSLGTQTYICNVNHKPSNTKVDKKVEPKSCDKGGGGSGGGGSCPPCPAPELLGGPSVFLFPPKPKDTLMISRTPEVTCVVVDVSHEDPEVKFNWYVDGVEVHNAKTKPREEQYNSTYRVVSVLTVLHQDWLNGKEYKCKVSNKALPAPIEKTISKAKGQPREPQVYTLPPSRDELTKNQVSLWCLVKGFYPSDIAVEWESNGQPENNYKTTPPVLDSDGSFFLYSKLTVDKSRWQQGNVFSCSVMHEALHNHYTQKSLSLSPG
light: EIVLTQSPGTLSLSPGERATLSCRASQSVSSYANSYLHWYQQKPGQAPRLLIYRGSTRESGIPDRFSGSGSGTDFTLTISRLEPEDFAVYYCQQSKSEPLTFGGGTKVEIKRTVAAPSVFIFPPSDEQLKSGTASVVCLLNNFYPREAKVQWKVDNALQSGNSQESVTEQDSKDSTYSLSSTLTLSKADYEKHKVYACEVTHQGLSSPVTKSFNRGECGPAPELLGGGSDIVMTQSPLSLPVTPGEPASISCRSSQSLLHSNGYNYLHWYLQKPGQSPQLLIYKVSNRLSGVPDRFSGSGSGTDFTLKISRVEAEDVGVYYCFQNTHTPRTFGGGTKVEIKRTVAAPSVFIFPPSDEQLKSGTASVVCLLNNFYPREAKVQWKVDNALQSGNSQESVTEQDSKDSTYSLSSTLTLSKADYEKHKVYACEVTHQGLSSPVTKSFNRGECGGGGSGGGGSCPPCPAPELLGGPSVFLFPPKPKDTLMISRTPEVTCVVVDVSHEDPEVKFNWYVDGVEVHNAKTKPREEQYNSTYRVVSVLTVLHQDWLNGKEYKCKVSNKALPAPIEKTISKAKGQPREPQVYTLPPSRDELTKNQVSLSCAVKGFYPSDIAVEWESNGQPENNYKTTPPVLDSDGSFFLVSKLTVDKSRWQQGNVFSCSVMHEALHNHYTQKSLSLSPG
notes: also called Met47-LHL-LHL; clone 6
Consider B4, for which the “fold reduction of ability to bind CD47 in comparison to A-D5 IgG1” value in assay [5] was more than 1000 fold. In addition, the binding result in assay [6] was “binds”. For the same molecule, the “fold reduction of ability to induce agglutination in comparison to A-D5 IgG1” value in assay [1] is more than 241 fold.

Source of the values: patent US20230192899A1 (published 2023).
